Measurements published in publication PMC1635324 (Nucleic Acids Research, 2006).

Tests used:
[1] = target: T1, ribosomal protein L10 from Methanococcus vannielii (Methanococcus vannielii, UniProt P15826 1-336); assay: SEC
T1 sequence (looked up): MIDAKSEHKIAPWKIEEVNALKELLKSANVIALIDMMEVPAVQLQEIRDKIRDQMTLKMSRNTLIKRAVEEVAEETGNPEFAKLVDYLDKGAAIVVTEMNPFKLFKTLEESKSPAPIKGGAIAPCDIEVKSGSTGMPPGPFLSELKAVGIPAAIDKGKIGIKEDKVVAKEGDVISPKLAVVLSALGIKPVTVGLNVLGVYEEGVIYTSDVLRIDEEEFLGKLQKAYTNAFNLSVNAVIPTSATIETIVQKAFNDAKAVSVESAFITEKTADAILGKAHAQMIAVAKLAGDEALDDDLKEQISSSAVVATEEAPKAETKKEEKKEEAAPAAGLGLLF

[2] = target: T1, ribosomal protein L10 from …; assay: native gel or EMSA
[3] = target: T2, ribosomal protein L10 from Methanococcus jannaschii (Methanococcus jannaschii, UniProt P54049 1-338); assay: native gel or EMSA
T2 sequence (looked up): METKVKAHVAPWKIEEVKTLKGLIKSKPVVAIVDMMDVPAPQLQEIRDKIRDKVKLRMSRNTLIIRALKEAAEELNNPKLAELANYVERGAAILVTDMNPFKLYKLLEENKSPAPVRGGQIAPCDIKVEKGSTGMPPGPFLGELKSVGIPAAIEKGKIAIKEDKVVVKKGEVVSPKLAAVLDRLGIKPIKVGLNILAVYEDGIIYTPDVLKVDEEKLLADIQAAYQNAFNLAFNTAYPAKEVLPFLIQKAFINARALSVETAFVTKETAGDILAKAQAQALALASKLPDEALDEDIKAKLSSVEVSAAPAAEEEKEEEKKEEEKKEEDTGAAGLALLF

[4] = target: T3, ribosomal protein L10 from Sulfolobus solfataricus (Sulfolobus solfataricus, UniProt P96039 1-338); assay: SEC
T3 sequence (looked up): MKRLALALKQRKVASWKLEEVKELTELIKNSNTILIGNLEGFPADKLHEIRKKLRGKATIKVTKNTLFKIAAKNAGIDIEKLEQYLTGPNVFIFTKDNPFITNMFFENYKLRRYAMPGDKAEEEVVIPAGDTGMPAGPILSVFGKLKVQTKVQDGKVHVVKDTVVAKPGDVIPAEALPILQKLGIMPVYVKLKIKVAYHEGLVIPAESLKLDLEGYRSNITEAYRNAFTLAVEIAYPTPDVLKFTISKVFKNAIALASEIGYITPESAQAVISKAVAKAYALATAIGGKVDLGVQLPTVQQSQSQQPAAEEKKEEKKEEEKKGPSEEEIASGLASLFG

[5] = target: T3, ribosomal protein L10 from Sulfolobus …; assay: native gel or EMSA
[6] = target: T4, ribosomal protein L10 from Thermus thermophilus (Thermus thermophilus, UniProt Q8VVE3 1-173); assay: SEC
T4 sequence (looked up): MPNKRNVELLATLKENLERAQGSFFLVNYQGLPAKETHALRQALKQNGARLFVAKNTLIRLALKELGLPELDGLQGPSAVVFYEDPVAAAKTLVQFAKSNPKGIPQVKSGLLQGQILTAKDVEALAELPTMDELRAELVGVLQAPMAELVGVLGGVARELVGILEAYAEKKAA

[7] = target: T5, ribosomal protein L10 from Methanococcus thermolithotrophicus (Methanococcus thermolithotrophicus, UniProt O52705 1-338); assay: SEC
T5 sequence (looked up): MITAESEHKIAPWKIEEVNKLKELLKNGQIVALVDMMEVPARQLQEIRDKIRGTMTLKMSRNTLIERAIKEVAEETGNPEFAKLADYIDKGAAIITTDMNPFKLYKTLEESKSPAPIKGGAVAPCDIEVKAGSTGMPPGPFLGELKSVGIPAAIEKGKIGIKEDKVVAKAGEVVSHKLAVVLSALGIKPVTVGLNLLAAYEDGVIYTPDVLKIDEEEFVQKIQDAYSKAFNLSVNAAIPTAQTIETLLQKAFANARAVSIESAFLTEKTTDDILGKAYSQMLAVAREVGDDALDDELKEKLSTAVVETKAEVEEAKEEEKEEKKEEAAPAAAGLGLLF

[8] = target: T5, ribosomal protein L10 from …; assay: native gel or EMSA

B1: ribosomal protein L12 from Methanococcus vannielii (natural protein, UniProt P10623 1-99, looked up)
chain: MEYIYAALLLNSANKEVTEEAVKAVLVAGGIEANDARVKALVAALEGVDIAEAIAKAAIAPVAAAAPVAAAAAPAEVKKEEKKEDTTAAAAAGLGALFM
stoichiometry N [1]: 4 L12 per L10
stoichiometry N [2]: ~4 L12 per L10

B2: ribosomal protein L12 from Methanococcus jannaschii (natural protein, UniProt P54048 1-102, looked up)
chain: MEYIYAALLLHSAGKEITEDAIKAVLSAAGVEVDDARVKALVAGLEGVDIEEAIANAAMPVAAAPAAAAPAAAAEEKKEEEKKEEKKEEDTAAVAGLAALFG
stoichiometry N [3]: ~4 L12 per L10

B3: ribosomal protein L12 from Sulfolobus solfataricus (natural protein, UniProt P96040 1-106, looked up)
chain: MEYIYASLLLHSAKKEISEDALKNVLTAAGISVDEVRLKAVVAALKEVNIDEVLKNAAAMPVAVAAQPQATQAQPAAEEKKEEKKEEEKKGPSEEEIASGLASLFG
stoichiometry N [4]: 4 L12 per L10
stoichiometry N [5]: ~4 L12 per L10

B4: ribosomal protein L12 from Thermus thermophilus (natural protein, UniProt Q8VVE2 1-125, looked up)
chain: MALDIERIKEELSQATVLELKQLIDALKEAWGVTAAAPVAVAAAPAAGAAAAPAEEKTEFDVILKEAGAKKLEVIKELRAITGLGLKEAKDLAEKGGPVKEGVSKQEAEEIKKKLEAVGAVVELK
stoichiometry N [6]: 6 L12 per L10

B5: ribosomal protein L12 from Methanococcus thermolithotrophicus (natural protein, UniProt O52706 1-101, looked up)
chain: MEYIYASLLLHSAGKEITEDAVKAVLSAAGVEVEDARVKALVAALEGVDIEEAIEKAAMPVAAAAAPAAAPAEEPKEEKKEEKKEEDTTAAAAAGLGALFG
stoichiometry N [7]: 4 L12 per L10
stoichiometry N [8]: ~4 L12 per L10
